Consider one variant from publication PMC11413682.

B1: SARS-CoV-2 ORF10 N5 peptide [SARS-CoV-2] / CUL2^ZYG11B (residues 490–728) [human] (parent)
chain 1: GYINV
chain 2: ELFIVRQLLQIVKQKTNQNSVDTTLKFTLSALWNLTDESPTTCRHFIENQGLELFMRVLESFPTESSIQQKVLGLLNNIAEVQELHSELMWKDFIDHISSLLHSVEVEVSYFAAGIIAHLISRGEQAWTLSRSQRNSLLDDLHSAILKWPTPECEMVAYRSFNPFFPLLGCFTTPGVQLWAVWAMQHVCSKNPSRYCSMLIEEGGLQHLYNIKDHEHTDPHVQQIAVAILDSLEKHIVR

The assay covers variants of B1. The experiment in a line: ITC. To be noted: with CUL2^ZYG11B (residues 490–728) [human].
The Kd is the equilibrium constant for the complex coming apart. For chain 1 G1S, the equilibrium dissociation constant (Kd) came to 13.2 µM.
